Results published in patent publication US20230091471A1 (APELLIS PHARMACEUTICALS, published 2023).
Blank lines part the entries; values can stand above or below the binder they belong to.

Key:
[1] = molecular target: T1, human complement component C3 (human, UniProt P01024 23-1663); assay: cell-based or functional assay
[2] = molecular target: T1, human complement component C3; assay: cell-based or functional assay; remark: listed apart in the source

IC50 (read off the curve); classical pathway C3b deposition ELISA, human plasma [1]: ~600 nM
B3: CA28-AEEAc-Lys(mPEG40K-succinyl) (peptide)
peptide: ICVWQDWGAHRCTK
modifications: not fully specified; N-terminal acetyl; 1-methyl-Trp at 4; disulfide Cys2-Cys12; AEEAc after Thr13; Lys15 side chain coupled to linear 40 kD mPEG (NOF SUNBRIGHT ME-400CS); C-terminal amide

IC50 (read off the curve); classical pathway C3b deposition ELISA, human plasma [1]: ~600 nM
B4: CA28-AEEAc-Lys-(PEG40k) (peptide)
peptide: ICVWQDWGAHRCTK
modifications: not fully specified; N-terminal acetyl; 1-methyl-Trp at 4; disulfide Cys2-Cys12; AEEAc after Thr13; Lys15 side chain coupled to linear 40 kD mPEG (NOF SUNBRIGHT ME-400GS); C-terminal amide

Q1 (Type III cells with high C3d deposition) % Parent, modified Ham's assay, 50 ug/ml [2]: 0.01%
Q2 (Type I and II cells with high C3d deposition) % Parent, modified Ham's assay, 50 ug/ml [2]: 0.01%
Q3 (Type III cells without significant C3d deposition) % Parent, modified Ham's assay, 50 ug/ml [2]: 61.5%
Q4 (Type I and II cells without significant C3d deposition) % Parent, modified Ham's assay, 50 ug/ml [2]: 38.5%
B5: CA28-2GS-BF (peptide)
peptide: ICVWQDWGAHRCTK
modifications: not fully specified; N-terminal acetyl; 1-methyl-Trp at 4; disulfide Cys2-Cys12; AEEAc after Thr13; Lys side chain coupled to one end of a bifunctional linear 40 kD PEG of the GS type (NHS-OCO(CH2)3COO-PEG-CO(CH2)3COO-NHS); C-terminal …

Further lines, the binder ahead of its results:

B1: CA28-AEEAc-Lys(mPEG40K-carbonyl) (peptide)
peptide: ICVWQDWGAHRCTK
modifications: not fully specified; N-terminal acetyl; 1-methyl-Trp at 4; disulfide Cys2-Cys12; AEEAc after Thr13; Lys15 side chain coupled to linear 40 kD mPEG (NOF SUNBRIGHT ME-400TS); C-terminal amide
IC50 (read off the curve); classical pathway C3b deposition ELISA, human plasma [1]: ~600 nM

B2: CA28-AEEAc-Lys(mPEG40K-hexanoyl) (peptide)
peptide: ICVWQDWGAHRCTK
modifications: not fully specified; N-terminal acetyl; 1-methyl-Trp at 4; disulfide Cys2-Cys12; AEEAc after Thr13; Lys15 side chain coupled to linear 40 kD mPEG (NOF SUNBRIGHT ME-400HS); C-terminal amide
IC50 (read off the curve); classical pathway C3b deposition ELISA, human plasma [1]: ~600 nM
